Laboratory results taken from the supplement of paper PMC11246515.
± gives the standard deviation of the averaged measurements.

Assay: total protein half-life in vivo (active degradation + dilution); higher = more stable protein
[1] = E. coli NCM3722 delta-clpP, growth: N-lim chemostat, doubling time 6 h
[2] = E. coli NCM3722 delta-hslV, growth: N-lim chemostat, doubling time 6 h
[3] = E. coli NCM3722 delta-lon, growth: N-lim chemostat, doubling time 6 h
[4] = E. coli NCM3722 delta-smpB, growth: N-lim chemostat, doubling time 6 h
[5] = wild type E. coli NCM3722, growth: C-lim chemostat, doubling time 3 h
[6] = wild type E. coli NCM3722, growth: C-lim chemostat, doubling time 6 h
[7] = wild type E. coli NCM3722, growth: N-lim chemostat, doubling time 6 h
[8] = wild type E. coli NCM3722, growth: N-lim chemostat, doubling time 12 h
[9] = wild type E. coli NCM3722, growth: P-lim chemostat, doubling time 6 h
[10] = wild type E. coli NCM3722, growth: P-lim chemostat, doubling time 12 h
[11] = wild type E. coli NCM3722, growth: C-lim chemostat, doubling time 12 h
[12] = E. coli NCM3722 delta-clpP delta-lon delta-hslV, growth: N-lim chemostat, doubling time 6 h

MAIALVTGGSRGIGRATALLLAQEGYTVAVNYQQNLHAAQEVMNLITQAGGKAFVLQADISDENQVVAMFTAIDQHDEPLAALVNNAGILFTQCTVENLTAERINRVLSTNVTGYFLCCREAVKRMALKNGGSGGAIVNVSSVASRLGSPGEYVDYAASKGAIDTLTTGLSLEVAAQGIRVNCVRPGFIYTEMHASGGEPGRVDRVKSNIPMQRGGQAEEVAQAIVWLLSDKASYVTGSFIDLAGGK
total protein half-life in vivo [1]: 5.48 ± 0.058 h | total protein half-life in vivo [2]: 5.67 h | total protein half-life in vivo [3]: 5.69 ± 0.45 h | total protein half-life in vivo [4]: 4.82 h | total protein half-life in vivo [5]: 3.03 ± 0.14 h | total protein half-life in vivo [6]: 5.93 h | total protein half-life in vivo [7]: 4.66 ± 0.41 h | total protein half-life in vivo [8]: 8.32 ± 0.23 h | total protein half-life in vivo [9]: 6.41 ± 0.74 h | total protein half-life in vivo [10]: 11.2 ± 1.9 h

MAIERTFSIIKPNAVAKNVIGNIFARFEAAGFKIVGTKMLHLTVEQARGFYAEHDGKPFFDGLVEFMTSGPIVVSVLEGENAVQRHRDLLGATNPANALAGTLRADYADSLTENGTHGSDSVESAAREIAYFFGEGEVCPRTR [P0A763]
total protein half-life in vivo [1]: 3.93 ± 0.36 h | total protein half-life in vivo [2]: 3.85 ± 0.32 h | total protein half-life in vivo [3]: 4.39 ± 0.36 h | total protein half-life in vivo [4]: 3.92 ± 0.15 h | total protein half-life in vivo [5]: 3.09 ± 0.092 h | total protein half-life in vivo [6]: 5.64 ± 0.11 h | total protein half-life in vivo [11]: 9.324 ± 0.023 h | total protein half-life in vivo [7]: 3.88 ± 0.28 h | total protein half-life in vivo [8]: 6.19 ± 0.36 h | total protein half-life in vivo [9]: 5 ± 0.82 h | total protein half-life in vivo [10]: 10.6 ± 0.11 h

MAIKKRSATVVPGASGAAAAVKNPQASKTSFWGELPQHVMSGISRMVPTLIMGGVILAFSQLIAYSWLKIPAEIGIMDALNSGKFSGFDLSLLKFAWLSQSFGGVLFGFAIPMFAAFVANSIGGKLAFPAGFIGGLMSTQPTQLLNFDPSTMQWATSSPVPSTFIGALIISIVAGYLVKWMNQKIQLPDFLLAFKTTFLLPILSAIFVMLAMYYVITPFGGWINGGIRTVLTAAGEKGALMYAMGIAAATAIDLGGPINKAAGFVAFSFTTDHVLPVTARSIAIVIPPIGLGLATIIDRRLTGKRLFNAQLYPQGKTAMFLAFMGISEGAIPFALESPITAIPSYMVGAIVGSTAAVWLGAVQWFPESAIWAWPLVTNLGVYMAGIALGAVITALMVVFLRLMMFRKGKLLIDSL
total protein half-life in vivo [5]: 2.72 h | total protein half-life in vivo [6]: 4.59 ± 0.42 h | total protein half-life in vivo [11]: 6.4 h

MAINNTGSRRLLVTLTALFAALCGLYLLIGGGWLVAIGGSWYYPIAGLVMLGVAWMLWRSKRAALWLYAALLLGTMIWGVWEVGFDFWALTPRSDILVFFGIWLILPFVWRRLVIPASGAVAALVVALLISGGILTWAGFNDPQEINGTLSADATPAEAISPVADQDWPAYGRNQEGQRFSPLKQINADNVHNLKEAWVFRTGDVKQPNDPGEITNEVTPIKVGDTLYLCTAHQRLFALDAASGKEKWHYDPELKTNESFQHVTCRGVSYHEAKAETASPEVMADCPRRIILPVNDGRLIAINAENGKLCETFANKGVLNLQSNMPDTKPGLYEPTSPPIITDKTIVMAGSVTDNFSTRETSGVIRGFDVNTGELLWAFDPGAKDPNAIPSDEHTFTFNSPNSWAPAAYDAKLDLVYLPMGVTTPDIWGGNRTPEQERYASSILALNATTGKLAWSYQTVHHDLWDMDLPAQPTLADITVNGQKVPVIYAPAKTGNIFVLDRRNGELVVPAPEKPVPQGAAKGDYVTPTQPFSELSFRPTKDLSGADMWGATMFDQLVCRVMFHQMRYEGIFTPPSEQGTLVFPGNLGMFEWGGISVDPNREVAIANPMALPFVSKLIPRGPGNPMEQPKDAKGTGTESGIQPQYGVPYGVTLNPFLSPFGLPCKQPAWGYISALDLKTNEVVWKKRIGTPQDSMPFPMPVPVPFNMGMPMLGGPISTAGNVLFIAATADNYLRAYNMSNGEKLWQGRLPAGGQATPMTYEVNGKQYVVISAGGHGSFGTKMGDYIVAYALPDDVK
total protein half-life in vivo [12]: 6.446 ± 0.039 h | total protein half-life in vivo [1]: 7.31 ± 0.86 h | total protein half-life in vivo [2]: 5.96 ± 0.15 h | total protein half-life in vivo [3]: 6.58 ± 0.58 h | total protein half-life in vivo [4]: 6.14 ± 0.11 h | total protein half-life in vivo [5]: 3.18 ± 0.17 h | total protein half-life in vivo [6]: 6.44 ± 0.37 h | total protein half-life in vivo [11]: 13.8 ± 0.65 h | total protein half-life in vivo [7]: 6.04 ± 0.28 h | total protein half-life in vivo [8]: 13.4 ± 0.83 h | total protein half-life in vivo [9]: 6.54 ± 0.22 h | total protein half-life in vivo [10]: 13.69 ± 0.084 h

MAIRLYKLAVALGVFIVSAPAFSHGHHSHGKPLTEVEQKAANGVFDDANVQNRTLSDWDGVWQSVYPLLQSGKLDPVFQKKADADKTKTFAEIKDYYHKGYATDIEMIGIEDGIVEFHRNNETTSCKYDYDGYKILTYKSGKKGVRYLFECKDPESKAPKYIQFSDHIIAPRKSSHFHIFMGNDSQQSLLNEMENWPTYYPYQLSSEEVVEEMMSH
total protein half-life in vivo [12]: 5.56 h | total protein half-life in vivo [2]: 7.32 ± 0.35 h | total protein half-life in vivo [5]: 3.24 ± 0.14 h | total protein half-life in vivo [6]: 6.23 ± 0.17 h | total protein half-life in vivo [11]: 12.8 ± 0.55 h | total protein half-life in vivo [8]: > 16 h | total protein half-life in vivo [9]: 5.89 ± 0.14 h

MAISIKGVNTGVIRKSNNFIALALKIKEPRNKESLFFMSVMELRDLLIALESRLHQKHKLDAAAHLQYEQARDKVIKKMAENIPEILVDELKNADINRRVNTLELTDNQGENLTFVLTLHDGSKCELVVNELQIEMLARAIIHAINNAEMRELALRITSLLDFLPLYDVDCQDNGNLEYDTYSQPEWKHNLFDHYLAVLYRFKDESGKEQFSGAVVKTREATPGKEIEAITRRMLDFSPRLKKLAGVPCQVYVRTVAANNAQPLTQDQCLRALHHLRVQSTSKTAPQAK
total protein half-life in vivo [12]: 5.19 ± 0.073 h | total protein half-life in vivo [4]: 2.7 ± 0.24 h | total protein half-life in vivo [5]: 2.52 ± 0.14 h | total protein half-life in vivo [6]: 4.83 ± 1.6 h

MAISSRNTLLAALAFIAFQAQAVNVTVAYQTSAEPAKVAQADNTFAKESGATVDWRKFDSGASIVRALASGDVQIGNLGSSPLAVAASQQVPIEVFLLASKLGNSEALVVKKTISKPEDLIGKRIAVPFISTTHYSLLAALKHWGIKPGQVEIVNLQPPAIIAAWQRGDIDGAYVWAPAVNALEKDGKVLTDSEQVGQWGAPTLDVWVVRKDFAEKHPEVVKAFAKSAIDAQQPYIANPDVWLKQPENISKLARLSGVPEGDVPGLVKGNTYLTPQQQTAELTGPVNKAIIDTAQFLKEQGKVPAVANDYSQYVTSRFVQ
total protein half-life in vivo [12]: 4.13 ± 0.43 h | total protein half-life in vivo [1]: 4.56 ± 0.22 h | total protein half-life in vivo [2]: 5.96 ± 0.29 h | total protein half-life in vivo [3]: 5.56 ± 0.55 h | total protein half-life in vivo [5]: 2.98 ± 0.11 h | total protein half-life in vivo [6]: 5.75 ± 1.8 h | total protein half-life in vivo [11]: 13.2 ± 2.6 h | total protein half-life in vivo [7]: 5.5 ± 0.39 h | total protein half-life in vivo [8]: 12.4 ± 0.93 h | total protein half-life in vivo [9]: 6.77 ± 1.1 h | total protein half-life in vivo [10]: 11 ± 0.14 h
